We go through 1 molecule from PMC12122859 (Communications Biology, 2025).

Broadly, the Kd is the constant that tells how readily two partners part at equilibrium.

Experiment [1] concerns the target soluble recombinant E1E2 (hepatitis C virus (strain not stated)).
The target of experiment [2] is membrane-bound recombinant E1E2 (hepatitis C virus (strain not stated)).
For experiment [3], the target named is T1, E2 alone (as compared with E1E2) (Hepatitis C virus genotype 1b, strain …).
T1 chain: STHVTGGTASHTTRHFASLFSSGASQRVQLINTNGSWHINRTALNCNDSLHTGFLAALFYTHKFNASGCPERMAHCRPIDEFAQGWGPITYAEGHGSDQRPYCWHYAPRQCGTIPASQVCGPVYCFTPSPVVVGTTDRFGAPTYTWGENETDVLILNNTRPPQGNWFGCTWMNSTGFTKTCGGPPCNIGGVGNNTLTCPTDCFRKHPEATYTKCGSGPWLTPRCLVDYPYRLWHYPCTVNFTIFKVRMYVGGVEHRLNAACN

B1: CBH4B (antibody, format not stated, as tested on E1E2 and E2 alone) (antibody, V domains shown)
VH: QIQLVQSGAEVKKPGSSVKVSCRASGGSFGTYGITWVRQAPGQGLEWVGGIVPLFDRPNYAQKFQDRVAITADESTSTAYMELSSLRFDDTAVYYCAREADIVVGGSSYFDSWGQGTLVTVTK
VL: ESVLTQSPGTLSLSPGERATLSCRASQSVSSTYVAWYQQKPGQAPRLLIYDASIRATGVPDRFSGGGSGTDFTLTISRLEPEDFAVYYCQQYGGSPFFGGGTKVEIK
On to B1, for which the Kd in experiment [1] turned out to be 19 nM; in experiment [2], 3.1 nM; in experiment [3] it was 0.08 nM.
